This test concerns the target HigA2Ab-His antitoxin (C-terminal His-tag fusion, from pET-HigBA-His) (Acinetobacter baumannii). Briefly: SEC.

Take “HigB2Ab toxin, untagged (co-expressed from pET-HigBA-His or pET-HigB-His6-TEV-HigA)”: the stoichiometry N (toxin:antitoxin) was 1.

Values taken from article PMC5906591.
